In PMC12800238:

Tests used:
[1] = biological target: WEEV California E1 domain III fused to human IgG1 Fc (Western equine encephalitis virus, strain California); assay: BLI
[2] = biological target: WEEV strain California virus-like particles (Western equine encephalitis virus, strain California); assay: ELISA
[3] = biological target: human VLDLR LA5 fused to human IgG1 Fc (human) (UniProt P98155); assay: BLI
[4] = biological target: human VLDLR LA3 fused to human IgG1 Fc (human) (UniProt P98155); assay: BLI
[5] = biological target: human VLDLR LA1 fused to human IgG1 Fc (human) (UniProt P98155); assay: BLI
[6] = biological target: human VLDLR LA2 fused to human IgG1 Fc (human) (UniProt P98155); assay: BLI

## human VLDLR LA3 with 6x His tag (from UniProt P98155-1 111-151) (domain or fragment)
[1]
  Kd: 830 nM

## human VLDLR LA5 with 6x His tag (from UniProt P98155-1 191-236) (domain or fragment)
[1]
  Kd: 808 nM

## human VLDLR LA1-2 fused to human IgG1 Fc (from UniProt P98155-1 28-113) (Fc fusion)
[2]
  Kd: 1630 nM

## human VLDLR LA1-5 fused to human IgG1 Fc (from UniProt P98155-1 28-236) (Fc fusion)
[2]
  Kd: 410 nM

## human VLDLR LA5 fused to human IgG1 Fc (from UniProt P98155-1 191-236) (Fc fusion)
[2]
  Kd: 7770 nM

## WEEV strain California virus-like particles (complex)
[3]
  Kd: 0.37 nM
[4]
  Kd: 6.09 nM
[5]
  Kd: 0.11 nM
[6]
  Kd: 1.59 nM

## human VLDLR LA3 fused to human IgG1 Fc (from UniProt P98155-1 111-151) (Fc fusion)
[2]
  Kd: 10900 nM

## human VLDLR LA1-3 fused to human IgG1 Fc (from UniProt P98155-1 28-152) (Fc fusion)
[2]
  Kd: 470 nM

## human VLDLR ligand-binding domain (LA1-8) fused to human IgG1 Fc (from UniProt P98155-1 28-355) (Fc fusion)
[2]
  Kd: 1210 nM
